Measurements taken from patent US20110319337A1 (published 2011).

How the values were obtained:
Assay in all cases: cell-based or functional assay
[1] = target: Frizzled 8 receptor (expressed in transfected cells) (human, UniProt Q9H461 28-694)
[2] = target: Frizzled 9 (expressed in transfected 293T cells)
[3] = target: T1, Frizzled 6 (expressed in transfected 293T cells)
T1 sequence (O60353 whole entry, species assumed, looked up): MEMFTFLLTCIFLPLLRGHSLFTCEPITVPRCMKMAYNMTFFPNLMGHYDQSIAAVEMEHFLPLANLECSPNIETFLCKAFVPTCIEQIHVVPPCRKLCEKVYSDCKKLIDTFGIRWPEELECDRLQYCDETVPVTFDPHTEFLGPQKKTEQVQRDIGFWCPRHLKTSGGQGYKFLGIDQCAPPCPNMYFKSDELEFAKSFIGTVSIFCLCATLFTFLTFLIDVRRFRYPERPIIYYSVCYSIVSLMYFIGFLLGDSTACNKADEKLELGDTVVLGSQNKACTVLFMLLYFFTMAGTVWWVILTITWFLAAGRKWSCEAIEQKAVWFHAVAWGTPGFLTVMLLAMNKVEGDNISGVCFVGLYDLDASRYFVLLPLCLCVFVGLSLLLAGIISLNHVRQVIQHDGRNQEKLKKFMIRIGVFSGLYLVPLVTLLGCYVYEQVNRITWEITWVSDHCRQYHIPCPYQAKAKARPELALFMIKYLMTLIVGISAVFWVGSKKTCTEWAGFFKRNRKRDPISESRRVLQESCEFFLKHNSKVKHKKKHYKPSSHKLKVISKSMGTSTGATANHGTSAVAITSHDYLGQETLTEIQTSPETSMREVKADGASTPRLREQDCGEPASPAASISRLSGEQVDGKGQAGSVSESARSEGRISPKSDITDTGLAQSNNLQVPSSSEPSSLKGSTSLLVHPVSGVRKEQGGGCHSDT

[4] = target: Frizzled 7 (expressed in transfected 293T cells)

Sequence of Frizzled 8 receptor (expressed in transfected cells) (Q9H461 28-694 limits assumed): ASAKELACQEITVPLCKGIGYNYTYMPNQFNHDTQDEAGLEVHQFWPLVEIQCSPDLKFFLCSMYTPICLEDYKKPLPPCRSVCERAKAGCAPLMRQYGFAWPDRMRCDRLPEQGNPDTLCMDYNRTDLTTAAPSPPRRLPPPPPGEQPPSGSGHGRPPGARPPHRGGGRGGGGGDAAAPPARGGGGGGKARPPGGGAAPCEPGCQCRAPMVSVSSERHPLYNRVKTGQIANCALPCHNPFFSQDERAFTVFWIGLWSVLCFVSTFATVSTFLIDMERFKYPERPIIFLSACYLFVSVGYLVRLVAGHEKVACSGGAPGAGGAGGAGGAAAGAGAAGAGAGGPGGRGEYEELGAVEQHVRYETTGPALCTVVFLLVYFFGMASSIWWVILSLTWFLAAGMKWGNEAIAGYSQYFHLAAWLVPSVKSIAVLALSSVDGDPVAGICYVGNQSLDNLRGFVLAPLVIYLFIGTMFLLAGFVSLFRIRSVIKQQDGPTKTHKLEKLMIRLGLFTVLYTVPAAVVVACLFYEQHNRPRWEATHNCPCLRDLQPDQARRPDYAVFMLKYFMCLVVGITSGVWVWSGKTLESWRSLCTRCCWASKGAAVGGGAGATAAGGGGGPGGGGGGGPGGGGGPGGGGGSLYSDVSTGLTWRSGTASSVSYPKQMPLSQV

TCF activity (TOPflash reporter) in Human Embryonic Kidney 293 cells and A549 cells compared to vector control [1]: 5 fold
luciferase activity (TOPflash TCF reporter, 293T cells co-expressing Wnt2 and the Fzd receptor) compared to vector alone [1]: 25 fold
luciferase activity (TOPflash TCF reporter, 293T cells co-expressing Wnt2 and the Fzd receptor) over vector control alone [2]: 16 fold
luciferase activity (TOPflash TCF reporter, 293T cells co-expressing Wnt2 and the Fzd receptor) [3]: 10 fold
TCF-activity (TOPflash reporter, 293T cells) compared to vector control [4]: 4 fold
TCF-activity (TOPflash reporter, 293T cells), increase due to the presence of Wnt2 [4]: ~2 fold
B1: wild type Wnt2 (expressed from transfected Wnt2 cDNA) (ligand)
chain: SWWYMRATGGSSRVMCDNVPGLVSSQRQLCHRHPDVMRAISQGVAEWTAECQHQFRQHRWNCNTLDRDHSLFGRVLLRSSRESAFVYAISSAGVVFAITRACSQGEVKSCSCDPKKMGSAKDSKGIFDWGGCSDNIDYGIKFARAFVDAKERKGKDARALMNLHNNRAGRKAVKRFLKQECKCHGVSGSCTLRTCWLAMADFRKTGDYLWRKYNGAIQVVMNQDGTGFTVANERFKKPTKNDLVYFENSPDYCIRDREAGSLGTAGRVCNLTSRGMDSCEVMCCGRGYDTSHVTRMTKCGCKFHWCCAVRCQDCLEALDVHTCKAPKNADWTTAT
